Measurements reported in patent publication US20260193375A1 (NORMUNITY, published 2026).

Legend:
[1] = biological target: T1, human LY6E (R&D Systems) (human, UniProt Q16553 21-101, limits assumed); assay: ELISA, antigen coated on the plate, antibody as human IgG1, anti-human F(ab)2 HRPO
T1 construct: also called hLY6E
T1 sequence (looked up): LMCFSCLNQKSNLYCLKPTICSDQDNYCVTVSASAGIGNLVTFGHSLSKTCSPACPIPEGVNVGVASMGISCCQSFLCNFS

[2] = biological target: T2, Ly6H; assay: as above
T2 chain: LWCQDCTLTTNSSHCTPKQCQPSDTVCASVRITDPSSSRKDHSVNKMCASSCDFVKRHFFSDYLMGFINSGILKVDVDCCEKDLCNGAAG

[3] = biological target: T3, Ly6D; assay: as above
T3 chain: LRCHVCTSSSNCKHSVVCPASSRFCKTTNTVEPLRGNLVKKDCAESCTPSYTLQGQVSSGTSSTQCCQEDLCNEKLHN

[4] = biological target: T1, human LY6E (R&D Systems); assay: ELISA, coated antigen, IgG1 at 10 ug/ml
[5] = biological target: T4, rat LY6K (R&D Systems) (rat); assay: ELISA, coated antigen, IgG1 at 10 ug/ml
T4 construct: also called rLY6K

[6] = biological target: T5, cynomolgus monkey LY6K (R&D Systems) (cynomolgus monkey); assay: ELISA, coated antigen, IgG1 at 10 ug/ml
T5 construct: also called cyLY6K

[7] = biological target: T6, Human LY6K (R&D Systems) (human, UniProt Q17RY6 18-138, limits assumed); assay: ELISA, coated antigen, IgG1 at 10 ug/ml
T6 construct: Bought from R&D Systems, coated on ELISA plates; also called hLY6K
T6 sequence: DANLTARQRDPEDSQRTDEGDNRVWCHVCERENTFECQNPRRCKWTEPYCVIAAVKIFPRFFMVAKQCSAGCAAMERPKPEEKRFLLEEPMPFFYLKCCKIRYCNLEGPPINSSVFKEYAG

[8] = biological target: T7, hLY6K-his (human, UniProt Q17RY6 18-138, limits assumed); assay: SPR (Carterra LSA), mAb captured on anti-human IgG-Fc, antigen as analyte
T7 construct: not shown: his tag
T7 sequence: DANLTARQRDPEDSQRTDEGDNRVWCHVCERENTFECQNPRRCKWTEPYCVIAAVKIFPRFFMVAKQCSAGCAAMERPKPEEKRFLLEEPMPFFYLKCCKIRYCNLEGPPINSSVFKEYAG

[9] = biological target: T8, hLY6K-mFc (human, UniProt Q17RY6 18-138); assay: as above
T8 construct: not shown: mFc
T8 sequence: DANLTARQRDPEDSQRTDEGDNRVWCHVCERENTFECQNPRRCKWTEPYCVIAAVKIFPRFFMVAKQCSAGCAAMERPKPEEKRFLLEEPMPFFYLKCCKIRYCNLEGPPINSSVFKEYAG

[10] = biological target: cyLY6K-mFc (cynomolgus monkey); assay: as above

Row | Binder | binding result [1] | binding result [2] | binding result [3] | % of maximum of commercial anti-LY6K mAb on human LY6K [4] | % of maximum of commercial anti-LY6K mAb on human LY6K [5] | % of maximum of commercial anti-LY6K mAb on human LY6K [6] | % of maximum of commercial anti-LY6K mAb on human LY6K [7] | Kd [8] | Kd [9] | Kd [10]
1 | anti-LY6K antibody 3719 (antibody, V domains shown) VH: EVQLVESGGGLVQPGRSLRLSCTASGFTFNDYAMHWVRQAPGKGLEWVSGISWNSNNIDYADSVKGRFTISRDNAKNSLYMQMNSLRAEDTALYYCAKDGPGTTNDAFDIWGQGTMVTVSS VL: DIQMTQSPSSLSASVGDRVTITCRASHSISSYLNWYQQKPGKAPKLLIYAASSLQSGVPSRFSGSGSGTDFTLTISSLQPEDFATYYCHQGYSTPLTFGGGTKVEIK | no binding (tested: 10 µg/ml) | no binding (tested: 10 µg/ml) | no binding (tested: 10 µg/ml) | 4.2% | -1.7% | 0.8% |  |  |  | 
2 | anti-LY6K antibody 3527 (antibody, V domains shown) VH: EVQLVESGGGLVKPGGSLRLSCAASGFTFSSYSMNWVRQAPGKGLEWVSSISSTSSYIYYADSVKGRFTISRDNAKNSLYLQMNSLRAEDTAVYYCARSDYYDSGSYKNYYYYYMDVWGKGTTVTVSS VL: DIQMTQSPSSLSASVGDRVTITCRTSQSISSYLNWFQQKPGKAPKVLIYAASSLQRGVPSRFSGSGSGTDFTLTISSLQPEDFATYYCQQSYSTPLTFGGGTKVEIK |  |  |  | 4.6% | 1.1% | 58% | 54.6% |  |  | 
3 | anti-LY6K antibody 3501 (antibody, V domains shown) VH: EVQLVESGGGLVQPGRSLRLSCAASGFTFDDYAMHWVRQAPGKGLEWVSGISWNSGTIDYADSVKGRFTISRDNAKNSLYLQVNSLRAEDTALYYCAKDSPQKDYYYMDVWGKGTTVTVSS VL: DIQMTQSPSSLSASVGDRVTITCRTSQSISSYLNWYQQKPGKAPNLLIYAASSLQSGVPSRFSGSGSGTDFTLTISSLQPEDFATYYCQQSYITPITFGQGTRLEIK | no binding (tested: 10 µg/ml) | no binding (tested: 10 µg/ml) | no binding (tested: 10 µg/ml) | 4.3% | 0.4% | 2% |  |  |  | 
4 | anti-LY6K antibody 3514 (antibody, V domains shown) VH: QVQLVQSGAEVKKPGASVKVSCKASGYTFTSYGISWVRQATGQGLEWMGWMNPNSGNTGYAQKFQGRVTMTRNTSISTAYMELSSLRSEDTAVYYCRAAGYYYYYYYMDVWGKGTTVTVSS VL: not shown |  |  |  | 2.9% | 0% | 2.6% |  |  |  | 
5 | anti-LY6K antibody 3102 (antibody, V domains shown) VH: QVQLVQSGAEVKKPGASVKVSCKASGYTFTGYYIHWMRQAPGQGLEWMGWINPNSGGTNYAQNFQGRVTMTRDTSINTAYMELSRLKSDDTAVYYCAKESGSPWGQGTLVTVSS VL: not shown |  |  |  | 3.8% | 0.2% | 40.1% | 38.4% |  |  | 
6 | anti-LY6K antibody 2659 (antibody, V domains shown, Has values only in SPR (CHO supernatant, captured by anti-human IgG-Fc)) VH: EVQLVESGGGLVQPGRSLRLSCAASGFTFDDYAMHWVRQAPGKGLEWVSGISWKSGIIGYADSVKGRFTISRDNAKNSLYLQMNSLRAEDTALYYCAKDSRTGLDYWGQGTLVTVSS VL: not shown |  |  |  |  |  |  |  | 6.13 nM | 0.034 nM | 
7 | anti-LY6K antibody 3743 (antibody, V domains shown) VH: EVQLVESGGGLVHPGRSLRLSCAASGFTFDDYAMHWVRQAPGKGLEWVSGISWKSGRIDYADSVKGRFTISRDNAKNSLYLQMNSLRAEDTALYYCAKDRRELTFDIWGQGTMVTVSS VL: DIVMTQTPLSSPVTLGQPASISCRSSQSLEHSNGNTYLSWLQQRPGQPPRLLIYKISNRFSGVPDRFSGSGAGTDFTLKISRVEAEDVGVYYCMQTTQFPLTFGGGTKVEIK |  |  |  | 5% | 2.6% | 3.5% |  |  |  | 
8 | anti-LY6K antibody 3056 (antibody, V domains shown, Has values only in SPR (CHO supernatant, captured by anti-human IgG-Fc)) VH: EVQLVESGGGLVQPGRSLRLSCAASGFTYDDYAMHWVRQVPGKGLEWVSGITWKKSIIGYADSVRGRFTVSRDSAKNSLYLQMSSLRVEDTALCYCAKDSTDGLDYWGQGTLVTVSS VL: DIVMTQTPLSSPVTLGQPASLSCRSSQSLLHSNGNTYLSWLQQRPGQPPRLLIYKISNRFSGVPDRFSGSGAGTDFTLKISRVEGEDVGVYYCMQATEFPYTFGQGTKLEIK |  |  |  |  |  |  |  | 0.472 nM | 0.0233 nM | 
9 | anti-LY6K antibody 3063 (antibody, V domains shown) VH: EVQLVESGGGLVKPGRSLRLSCAASGFTFDDFAMHWVRQAPGKGLEWVSGLSWKGHTLGYADSVKGRFTFSRDSAKNSLYLQMNSLRAEDTALYYCAKDTRSGLDYWGQGTLVTVSS VL: DIVMTQTPLSSPVTLGQPASISCRSSQSLEHSDGNTYLSWLQQRPGQPPRLLIYKISNRFSGVPDRFSGNGAGTDFTLKISRVEAEDVGIYYCMQATEFPFTFGGGTKVEIK | no binding (tested: 10 µg/ml) | no binding (tested: 10 µg/ml) | no binding (tested: 10 µg/ml) | 4.2% | -0.2% | 2.6% |  |  |  | 
10 | anti-LY6K antibody 3728 (antibody, V domains shown) VH: EVQLVESGGGLVKPGGSLRLSCAASGFTFSDVWMSWVRQAPGKGLEWVGRIKSKTDGGRIDYAAPVKGRFTISRDDSKNTLYLQMNSLKTEDTAVYYCTTVPYSDYWGQGTLVTVSS VL: not shown |  |  |  | 1% | -1.3% | 110% | 96.4% | 4.96 nM | 0.00734 nM | 0.0786 nM
11 | anti-LY6K antibody 3055 (antibody, V domains shown) VH: EVQLVESGGGLVQPGRSLRLSCAASGFTFDDFAMHWVRQAPGKGLEWVSGISWNTGTIGYADSVKGRFTISRDNAKNSLYLQMNSLRAEDTALYYCAKDKGTTGFDYWGQGTLVTVSS VL: DIQMTQSPSSVSASVGDRVTITCRASQGISRWLVWYQQKPGKAPKLLIYAASSLQSGVPSRFSGSGSGTDFTLTISSLQPEDFATYYCQQANSFPRTFGQGTRLEIK |  |  |  |  | 0.4% | 40.3% | 22.6% |  |  | 
12 | anti-LY6K antibody 3553 (antibody, V domains shown) VH: QVQLVQSGAEVKKPGASVKVSCKASGYTFTGYYMHWVRQAPGTGLDWMGWISPNSGGTNYAQKFQGRVTMTRDTSISTVYMELSRLRSDDTALYYCAREVGNYWGQGTLVTVSS VL: DIQMTQSPTSLSTSVGDRVTITCQASQDIYNYLNWYQLKPGKAPKLLIYDASNLERGVTSRFSGSGSGTDFTFTISSLQPEDIATYYCQQYDSLPITFGQGTRLEIK |  |  |  | 5% | 2.4% | 28.9% | 26% |  |  | 
13 | anti-LY6K antibody 3518 (antibody, V domains shown) VH: EVQLVESGGGLVQPGGSLKLSCAASGFTFSGSAMNWVRQASGKGLEWVGRIRSKANSYATAYAASLKGRFTISRDDSKNTAYLQMNSLKTEDTAVYYCTVTPFDYWGQGTLVTVSS VL: DIQMTQSPSSLSASVGDRVTITCQASQDISNHLNWYQQKPGKAPKLLINDASNLETGVPSRFSGSGSGTDFTFTISSLQPEDIATYYCQQYDNVPYTFGQGTKLEIK |  |  |  | 2.1% | 2.1% | 2.7% |  |  |  | 
14 | anti-LY6K antibody 3096 (antibody, V domains shown) VH: QVQLVQSGAEVKKPGASVRVSCKASGYTFTGYYIHWVRQAPGQGLEWMGWINPNSGGTNYAQKFQDRVTMTRDTSISTVYMELSRLRSDDTAVFFCAREASNFWGQGTLVTVSS VL: not shown |  |  |  | 1% | 0% | 37.2% | 35% | 63.8 nM | 1.36 nM | 9.49 nM
